Molecular target: Cryptosporidium parvum pyruvate kinase (Cryptosporidium parvum)
Assay: SEC; analytical Superdex 200 10/30, partially purified CpPyK, elution compared with catalase (Mr 232 kDa) run separately; fractions checked by SDS-PAGE

Substance: Cryptosporidium parvum pyruvate kinase (enzyme)
- stoichiometry N: 4

— publication PMC3467265
